B1: MYOZ1 (parent)
chain: FSDSSMDHFQKFLPTVGGQLGTAG
B2: PBXIP1 (parent)
chain: LPVETLGPASRMDPESERALQAPH

Variants of: B1
Assay: protein stability index of a GFP-peptide fusion (GPS, HEK-293T) (PSI 1-6); higher = more stable
Details: c terminus: a fixed tail appended
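Further: lentivirally expressed fusions sorted by FACS into six bins by GFP to DsRed ratio, PSI derived from sequencing read proportions per bin multiplied by bin number.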

Variant	protein stability index
FYDSSMDHFQKFLPTVGGQLGTAG [S2Y]	1.83
FADSSMDHFQKFLPTVGGQLGTAG [S2A]	1.77
FMDSSMDHFQKFLPTVGGQLGTAG [S2M]	2.63
FLDSSMDHFQKFLPTVGGQLGTAG [S2L]	3.52
FPDSSMDHFQKFLPTVGGQLGTAG [S2P]	2.54
FEDSSMDHFQKFLPTVGGQLGTAG [S2E]	2.81
FRDSSMDHFQKFLPTVGGQLGTAG [S2R]	1.94
FNDSSMDHFQKFLPTVGGQLGTAG [S2N]	2.23
FFDSSMDHFQKFLPTVGGQLGTAG [S2F]	1.62
FCDSSMDHFQKFLPTVGGQLGTAG [S2C]	1.5
FHDSSMDHFQKFLPTVGGQLGTAG [S2H]	1.5
FDDSSMDHFQKFLPTVGGQLGTAG [S2D]	2.95
FQDSSMDHFQKFLPTVGGQLGTAG [S2Q]	2.59
FIDSSMDHFQKFLPTVGGQLGTAG [S2I]	1.92
FGDSSMDHFQKFLPTVGGQLGTAG [S2G]	2.9
FSLSSMDHFQKFLPTVGGQLGTAG [D3L]	1.55
FSPSSMDHFQKFLPTVGGQLGTAG [D3P]	1.56
FSISSMDHFQKFLPTVGGQLGTAG [D3I]	1.89
FSQSSMDHFQKFLPTVGGQLGTAG [D3Q]	2.27
FSFSSMDHFQKFLPTVGGQLGTAG [D3F]	1.94
FSNSSMDHFQKFLPTVGGQLGTAG [D3N]	1.67
FSHSSMDHFQKFLPTVGGQLGTAG [D3H]	1.88

Variant	protein stability index
FSWSSMDHFQKFLPTVGGQLGTAG [D3W]	2.06
FSKSSMDHFQKFLPTVGGQLGTAG [D3K]	1.63
FSSSSMDHFQKFLPTVGGQLGTAG [D3S]	1.97
FSTSSMDHFQKFLPTVGGQLGTAG [D3T]	1.96
FSESSMDHFQKFLPTVGGQLGTAG [D3E]	3.06
FSMSSMDHFQKFLPTVGGQLGTAG [D3M]	1.45
FSYSSMDHFQKFLPTVGGQLGTAG [D3Y]	2.02
FSRSSMDHFQKFLPTVGGQLGTAG [D3R]	1.49
FSVSSMDHFQKFLPTVGGQLGTAG [D3V]	1.96
FSASSMDHFQKFLPTVGGQLGTAG [D3A]	1.96
FSDSSMAHFQKFLPTVGGQLGTAG [D7A]	1.38
FSDSSMCHFQKFLPTVGGQLGTAG [D7C]	1.9
FSDSSMHHFQKFLPTVGGQLGTAG [D7H]	1.82
FSDSSMIHFQKFLPTVGGQLGTAG [D7I]	2.3
FSDSSMKHFQKFLPTVGGQLGTAG [D7K]	1.8
FSDSSMGHFQKFLPTVGGQLGTAG [D7G]	1.44
FSDSSMEHFQKFLPTVGGQLGTAG [D7E]	2.02
FSDYSMDHFQKFLPTVGGQLGTAG [S4Y]	1.61
FSDVSMDHFQKFLPTVGGQLGTAG [S4V]	3.14
FSDMSMDHFQKFLPTVGGQLGTAG [S4M]	1.79
FSDASMDHFQKFLPTVGGQLGTAG [S4A]	2.09
FSDPSMDHFQKFLPTVGGQLGTAG [S4P]	2.42

Variant	protein stability index
FSDKSMDHFQKFLPTVGGQLGTAG [S4K]	2.12
FSDFSMDHFQKFLPTVGGQLGTAG [S4F]	2.87
FSDQSMDHFQKFLPTVGGQLGTAG [S4Q]	1.92
FSDISMDHFQKFLPTVGGQLGTAG [S4I]	3.59
FSDWSMDHFQKFLPTVGGQLGTAG [S4W]	2.89
FSDESMDHFQKFLPTVGGQLGTAG [S4E]	2.94
FSDGSMDHFQKFLPTVGGQLGTAG [S4G]	2.15
FSDHSMDHFQKFLPTVGGQLGTAG [S4H]	2.35
FSDRSMDHFQKFLPTVGGQLGTAG [S4R]	2.51
FSDCSMDHFQKFLPTVGGQLGTAG [S4C]	1.43
FSDNSMDHFQKFLPTVGGQLGTAG [S4N]	2.32
FSDDSMDHFQKFLPTVGGQLGTAG [S4D]	2.15
FSDTSMDHFQKFLPTVGGQLGTAG [S4T]	2.65
FSDSSRDHFQKFLPTVGGQLGTAG [M6R]	2.66
FSDSSNDHFQKFLPTVGGQLGTAG [M6N]	2.78
FSDSSFDHFQKFLPTVGGQLGTAG [M6F]	3.55
FSDSSADHFQKFLPTVGGQLGTAG [M6A]	2.65
FSDSSPDHFQKFLPTVGGQLGTAG [M6P]	2.56
FSDSSKDHFQKFLPTVGGQLGTAG [M6K]	3.08
FSDSSYDHFQKFLPTVGGQLGTAG [M6Y]	2.32
FSDSSCDHFQKFLPTVGGQLGTAG [M6C]	1.96
FSDSSDDHFQKFLPTVGGQLGTAG [M6D]	3.22

Variant	protein stability index
FSDSSIDHFQKFLPTVGGQLGTAG [M6I]	2.04
FSDSSTDHFQKFLPTVGGQLGTAG [M6T]	2.58
FSDSSHDHFQKFLPTVGGQLGTAG [M6H]	2.25
FSDSSLDHFQKFLPTVGGQLGTAG [M6L]	2.29
FSDSSSDHFQKFLPTVGGQLGTAG [M6S]	2.26
FSDSSQDHFQKFLPTVGGQLGTAG [M6Q]	3
FSDSSVDHFQKFLPTVGGQLGTAG [M6V]	2.23
FSDSSEDHFQKFLPTVGGQLGTAG [M6E]	3
FSDSSGDHFQKFLPTVGGQLGTAG [M6G]	2.86
FSDSSWDHFQKFLPTVGGQLGTAG [M6W]	1.44
LSDSSMDHFQKFLPTVGGQLGTAG [F1L]	3.11
TSDSSMDHFQKFLPTVGGQLGTAG [F1T]	3.51
MSDSSMDHFQKFLPTVGGQLGTAG [F1M]	3.7
ESDSSMDHFQKFLPTVGGQLGTAG [F1E]	3.38
KSDSSMDHFQKFLPTVGGQLGTAG [F1K]	3.77
PSDSSMDHFQKFLPTVGGQLGTAG [F1P]	3.6
HSDSSMDHFQKFLPTVGGQLGTAG [F1H]	3.88
ASDSSMDHFQKFLPTVGGQLGTAG [F1A]	3.62
NSDSSMDHFQKFLPTVGGQLGTAG [F1N]	3.23
GSDSSMDHFQKFLPTVGGQLGTAG [F1G]	2.41
YSDSSMDHFQKFLPTVGGQLGTAG [F1Y]	2.83
CSDSSMDHFQKFLPTVGGQLGTAG [F1C]	2.26

Variant	protein stability index
VSDSSMDHFQKFLPTVGGQLGTAG [F1V]	3.56
RSDSSMDHFQKFLPTVGGQLGTAG [F1R]	3.41
ISDSSMDHFQKFLPTVGGQLGTAG [F1I]	2.92
WSDSSMDHFQKFLPTVGGQLGTAG [F1W]	2.56
SSDSSMDHFQKFLPTVGGQLGTAG [F1S]	4.12
FSDSKMDHFQKFLPTVGGQLGTAG [S5K]	2.07
FSDSMMDHFQKFLPTVGGQLGTAG [S5M]	1.82
FSDSGMDHFQKFLPTVGGQLGTAG [S5G]	1.88
FSDSEMDHFQKFLPTVGGQLGTAG [S5E]	2.91
FSDSRMDHFQKFLPTVGGQLGTAG [S5R]	1.05
FSDSNMDHFQKFLPTVGGQLGTAG [S5N]	3.11
FSDSDMDHFQKFLPTVGGQLGTAG [S5D]	2.58
FSDSPMDHFQKFLPTVGGQLGTAG [S5P]	2.08
FSDSQMDHFQKFLPTVGGQLGTAG [S5Q]	2.19
FSDSAMDHFQKFLPTVGGQLGTAG [S5A]	3.02
FSDSFMDHFQKFLPTVGGQLGTAG [S5F]	2.22
FSDSLMDHFQKFLPTVGGQLGTAG [S5L]	3.12
FSDSWMDHFQKFLPTVGGQLGTAG [S5W]	2.38
FSDSHMDHFQKFLPTVGGQLGTAG [S5H]	2.25
FSDSTMDHFQKFLPTVGGQLGTAG [S5T]	2.98
FSDSCMDHFQKFLPTVGGQLGTAG [S5C]	2.19

Variants of: B2
Assay: as above
Details: c terminus: a fixed tail appended

Variant	protein stability index
LPVETLGPASRMDPESERALDAPH [Q21D]	4
LPVETLGPASRMDPESERALKAPH [Q21K]	4.28
LPVETLGPASRMDPESERALFAPH [Q21F]	3.8
LPVETLGPASRMDPESERALHAPH [Q21H]	3.92
LPVETLGPASRMDPESERALIAPH [Q21I]	4.09
LPVETLGPASRMDPESERALTAPH [Q21T]	4.55
LPVETLGPASRMDPESERALEAPH [Q21E]	4.79
LPVETLGPASRMDPESERALCAPH [Q21C]	4.14
LPVETLGPASRMDPESERALAAPH [Q21A]	3.93
LPVETLGPASRMDPESERALGAPH [Q21G]	3.97
LPVETLGPASRMDPESERALYAPH [Q21Y]	3.67
LPVETLGPASRMDPESERALPAPH [Q21P]	4.53
LPVETLGPASRMDPESERALNAPH [Q21N]	4.28
LPVETLGPASRMDPESERALRAPH [Q21R]	4.44
LPVETLGPASRMDPESERALMAPH [Q21M]	4.05
LPVETLGPASRMDPESERALSAPH [Q21S]	4.45
LPVETLGPASRMDPESERALLAPH [Q21L]	3.96
LPVETLGPASRMDPESERALWAPH [Q21W]	3.22
LPVETLGPASRMDPESERALVAPH [Q21V]	4.39
LPVETLGPASRMDPESERALQDPH [A22D]	4.7
LPVETLGPASRMDPESERALQLPH [A22L]	3.98
LPVETLGPASRMDPESERALQEPH [A22E]	4.68
LPVETLGPASRMDPESERALQPPH [A22P]	4.27
LPVETLGPASRMDPESERALQCPH [A22C]	4.45
LPVETLGPASRMDPESERALQRPH [A22R]	4.78
LPVETLGPASRMDPESERALQWPH [A22W]	3.25
LPVETLGPASRMDPESERALQVPH [A22V]	4.2

Variant	protein stability index
LPVETLGPASRMDPESERALQYPH [A22Y]	4.31
LPVETLGPASRMDPESERALQFPH [A22F]	4.01
LPVETLGPASRMDPESERALQSPH [A22S]	4.36
LPVETLGPASRMDPESERALQNPH [A22N]	4.5
LPVETLGPASRMDPESERALQGPH [A22G]	4.72
LPVETLGPASRMDPESERALQQPH [A22Q]	4.45
LPVETLGPASRMDPESERALQTPH [A22T]	4.7
LPVETLGPASRMDPESERALQHPH [A22H]	4.76
LPVETLGPASRMDPESERALQIPH [A22I]	4.23
LPVETLGPASRMDPESERALQKPH [A22K]	4.4
LPVETLGPASRMDPESERALQMPH [A22M]	3.68
LPVETLGPASRMDPESERALQAPR [H24R]	4.16
LPVETLGPASRMDPESERALQAPC [H24C]	4.05
LPVETLGPASRMDPESERALQAPG [H24G]	4.26
LPVETLGPASRMDPESERALQAPQ [H24Q]	4.31
LPVETLGPASRMDPESERALQAPL [H24L]	3.94
LPVETLGPASRMDPESERALQAPF [H24F]	4.21
LPVETLGPASRMDPESERALQAPS [H24S]	4.75
LPVETLGPASRMDPESERALQAPI [H24I]	3.72
LPVETLGPASRMDPESERALQAPT [H24T]	4.59
LPVETLGPASRMDPESERALQAPM [H24M]	4.23
LPVETLGPASRMDPESERALQAPP [H24P]	4.03
LPVETLGPASRMDPESERALQAPN [H24N]	4.61
LPVETLGPASRMDPESERALQAPV [H24V]	4.47
LPVETLGPASRMDPESERALQAPW [H24W]	4.07
LPVETLGPASRMDPESERALQAPD [H24D]	4.75
LPVETLGPASRMDPESERALQAPA [H24A]	4.44

Variant	protein stability index
LPVETLGPASRMDPESERALQAPE [H24E]	4.36
LPVETLGPASRMDPESERALQAPK [H24K]	4.5
LPVETLGPASRMDPESERALQAPY [H24Y]	4.07
LPVETLGPASRMDPESERALQAMH [P23M]	4.16
LPVETLGPASRMDPESERALQAEH [P23E]	4.8
LPVETLGPASRMDPESERALQALH [P23L]	4.49
LPVETLGPASRMDPESERALQACH [P23C]	4.19
LPVETLGPASRMDPESERALQAQH [P23Q]	4.06
LPVETLGPASRMDPESERALQASH [P23S]	4.78
LPVETLGPASRMDPESERALQATH [P23T]	4.57
LPVETLGPASRMDPESERALQADH [P23D]	4.6
LPVETLGPASRMDPESERALQAWH [P23W]	3.92
LPVETLGPASRMDPESERALQAFH [P23F]	3.98
LPVETLGPASRMDPESERALQAKH [P23K]	4.57
LPVETLGPASRMDPESERALQAHH [P23H]	4.45
LPVETLGPASRMDPESERALQAVH [P23V]	3.92
LPVETLGPASRMDPESERALQARH [P23R]	4.66
LPVETLGPASRMDPESERALQAYH [P23Y]	3.99
LPVETLGPASRMDPESERALQAAH [P23A]	4.09
LPVETLGPASRMDPESERALQANH [P23N]	4.26
LPVETLGPASRMDPESERALQAIH [P23I]	4.28
LPVETLGPASRMDPESERALQAGH [P23G]	5.01
LPVETLGPASRMDPESERAWQAPH [L20W]	3.7
LPVETLGPASRMDPESERAYQAPH [L20Y]	4.14
LPVETLGPASRMDPESERAVQAPH [L20V]	3.82
